Reference: article PMC8969154, “Deglutarylation of glutaryl-CoA dehydrogenase by deacylating enzyme SIRT5 promotes lysine oxidation in mice” (The Journal of Biological Chemistry, 2022)

Assays:
[1] = target: the molecule itself; assay: SEC; Superdex 200 Increase 10/300 GL, 25 mM Hepes pH 7.8, 30 mM NaCl, 0.75 ml/min; column calibrated with standard proteins; comparison of unmodified and modified GCDH told as data not shown
[2] = target: the molecule itself; assay: native gel or EMSA; BN-PAGE (NativePAGE 4-16% Bis-Tris) of liver mitochondria solubilised in 2% n-dodecyl-β-D-maltoside, 0.5% G-250; immunoblot for GCDH; SIRT5WT and SIRT5KO mice, fed or 24 h fasted; GCDHKO mitochondria as control for the band

B1: human recombinant GCDH protein (hGCDH-6XHIS), unmodified (enzyme, UniProt Q92947 45-438, looked up)
chain: RPEFDWQDPLVLEEQLTTDEILIRDTFRTYCQERLMPRILLANRNEVFHREIISEMGELGVLGPTIKGYGCAGVSSVAYGLLARELERVDSGYRSAMSVQSSLVMHPIYAYGSEEQRQKYLPQLAKGELLGCFGLTEPNSGSDPSSMETRAHYNSSNKSYTLNGTKTWITNSPMADLFVVWARCEDGCIRGFLLEKGMRGLSAPRIQGKFSLRASATGMIIMDGVEVPEENVLPGASSLGGPFGCLNNARYGIAWGVLGASEFCLHTARQYALDRMQFGVPLARNQLIQKKLADMLTEITLGLHACLQLGRLKDQDKAAPEMVSLLKRNNCGKALDIARQARDMLGGNGISDEYHVIRHAMNLEAVNTYEGTHDIHALILGRAITGIQAFTASK
notes: hGCDH-6XHIS 'modified from UniProtKB - Q92947'; printed residue numbers count on the full-length human GCDH protein; also called recombinant human GCDH; unmodified GCDH
For B1, the “stoichiometry N” value [1] was 4.

B2: chemically glutarylated human recombinant GCDH (glutaryl-GCDH) (enzyme, UniProt Q92947 45-438, looked up)
chain: B1 chain
modifications: glutaryl-lysine by chemical glutarylation: 10 sites found; heavily glutarylated K163, K170, K202, K240, K253, K357, K371, K377 (numbers of full-length human GCDH)
notes: as the chain of m2, chemically glutarylated; printed residue numbers count on the full-length human GCDH protein; also called glutarylated GCDH; modified GCDH
With B2 the “stoichiometry N” value [1] was 4.

B3: chemically succinylated human recombinant GCDH (succinyl-GCDH) (enzyme, UniProt Q92947 45-438, looked up)
chain: B1 chain
modifications: succinyl-lysine by chemical succinylation: 11 sites found (shown in Fig. S3D, not given)
notes: as the chain of m2, chemically succinylated; printed residue numbers count on the full-length human GCDH protein; also called succinylated GCDH; modified GCDH
With B3 the “stoichiometry N” value [1] was 4.

B4: glutaryl-CoA dehydrogenase (GCDH), endogenous, mouse liver mitochondria (enzyme, mouse (endogenous in liver mitochondria), UniProt Q60759 45-438, looked up)
chain: RPVFDWKDPLILEEQLTADEKLIRDTFRNYCQERLMSRILLANRNEVFHRDIVYEMGELGVLGPTIKGYGCAGVSSVAYGLLTRELERVDSGYRSMMSVQSSLVMHPIYTYGSEEQRQKYLPGLAKGELLGCFGLTEPNHGSDPGGMETRARHNPSNQSYTLSGTKTWITNSPVADLFIVWARCEDNCIRGFILEKGMRGLSAPRIEGKFSLRASATGMIIMDSVEVPEENVLPNVSSLAGPFGCLNTARYGITWGVLGAAEFCLHTARQYALDRIQFGVPLARNQLVQKKLADMLTEITLGLHACLQLGRLKDQDKATPEMVSMLKRNNCGKALDIARQARDILGGNGISDEYHVIRHAMNLEAVNTYEGTHDIHALILGRAITGIQAFTVGK
notes: glutaryl-CoA dehydrogenase, mouse, endogenous in liver mitochondria of SIRT5WT and SIRT5KO mice (GCDHKO mitochondria used to identify the band); Glutarylation state differs with genotype and feeding state (higher in starved SIRT5KO liver); also called GCDH tetramer; source: endogenous, mouse liver mitochondria solubilised in 2% n-dodecyl-β-D-maltoside
For B4, the “stoichiometry N” value [2] was 4.
